Laboratory results published in patent US20260151539A1 (University of Washington, published 2026).
Changes are numbered by the printed parent chain. Names may count otherwise.

B1: PXP (SEQ ID NO: 81) (designed binder)
chain: MRGSHHHHHHGSGRGDSVDGSGSGSGSGSGSGAPQMLRELQETNAALQDVRELLRQQVKEITFLKNTVMESDASGSGSGSGSGSGSLDGSPAGSPTSTEEGTSESATPESGPGTSTEPSEGSAPGSPAGSPTSTEEGTSTEPSEGSAPGTSTEPSEGSAPGTSESATPESGPGSEPATSGSETPGSEPATSGSETPGSPAGSPTSTEEGTSESATPESGPGTSTEPSEGSAPLDGSGSGSGSGSGSGAPQMLRELQETNAALQDVRELLRQQVKEITFLKNTVMESDASGSGSGSGSGSGSLEGRGDSHHHHHHKLN
B2: T40A mutant (SEQ ID NO: 82) (designed binder)
chain: MRGSHHHHHHGSGRGDSGSGSGSGSGSGSGAPQMLRELQEANAALQDVRELLRQQVKEITFLKNTVMESDASGSGSGSGSGSVDGSPAGSPTSTEEGTSESATPESGPGTSTEPSEGSAPGSPAGSPTSTEEGTSTEPSEGSAPGTSTEPSEGSAPGTSESATPESGPGSEPATSGSETPGSEPATSGSETPGSPAGSPTSTEEGTSESATPESGPGTSTEPSEGSAPLESGSGSGSGSGSGAPQMLRELQEANAALQDVRELLRQQVKEITFLKNTVMESDASGSGSGSGSGSGSGRGDSHHHHHHKLN
B3: Q54A mutant (SEQ ID NO: 83) (designed binder)
chain: B2 chain with A41T, Q55A, A253T, Q267A
B4: T40A+Q54A mutant (SEQ ID NO: 84) (designed binder)
chain: B2 chain with Q55A, Q267A

Biological target: the molecule itself
Assay: cell-based or functional assay

Row | Protein | Recovery Time Crossover [s], 25 C [s] | Recovery Time Crossover [s], 37 C [s] | Strain crossover (G'' > G'), 25 C [% strain] | Strain crossover (G'' > G'), 37 C [% strain]
1 | B1 | 4.79 | 7.91 | 161 | 151
2 | B2 | 4.51 | 4.58 | 127 | 143
3 | B3 | 4.45 | 4.39 | 116 | 132
4 | B4 | 4.39 | 4.38 | 119 | 95
